The supplement of paper PMC10567573

B1: FAM164A (parent)
chain: YDPDYIQCPYCQRRFNENAADRHI
B2: ALDH8A1 (parent)
chain: WSSRSPQERSRVLNQVADLLEQSL

Variants of: B1
Assay: protein stability index of a GFP-peptide fusion (GPS, HEK-293T) (PSI 1-6); higher = more stable
Conditions: c terminus: a fixed tail appended
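Also: lentivirally expressed fusions sorted by FACS into six bins by GFP to DsRed ratio, PSI derived from sequencing read proportions per bin multiplied by bin number.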

Protein stability index: each site, then its substitutions
N16: Y 4.94; E 3.97; D 3.79; T 4.48; L 4.45; R 5.19; W 4.61; I 4.75; P 5.53; C 4.37; K 4.8; G 3.71; V 4.39; S 4.56; A 4.63; Q 4.56; M 4.54; F 4.49; H 3.8
D2: E 4.93; I 2.38; F 3.52; Y 3.71; S 2.59; P 3.64; Q 3.55; M 3.49; V 2.37; N 4.26; K 4.37; W 3.42; T 2.33; A 2.46; C 2.33; L 2.69; R 4.07; G 3.96; H 2.78
C11: D 3.81; G 3.75; T 3.72; Y 3.45; F 3.45; K 3.57; Q 3.47; V 3.57; A 3.48; E 4.23; M 3.65; H 3.69; W 3.42; R 3.06; N 4.36; L 3.13; P 3.65; S 4.03; I 3.22
Y10: K 3.66; T 3.56; Q 3.45; E 3.26; P 3.72; G 3.32; F 4.28; C 3.23; L 3.02; D 3.36; A 4.5; R 2.99; I 3.15; S 3.9; M 3.53; V 3.49; H 3.6; N 3.91; W 3.89
Q7: K 3.94; V 4.7; P 2.88; L 3.48; I 4.76; D 2.64; T 4.57; M 3.33; W 2.83; Y 3.77; A 3.27; R 3.79; H 2.76; G 2.54; F 3.15; C 3.57; N 2.89; E 3.87; S 3.27
P9: V 2.44; R 2.58; T 2.55; I 2.29; E 3.11; A 2.38; N 2.75; S 2.95; L 2.09; Q 3.14; F 2.18; D 3.09; M 2.39; G 2.54; K 2.58; Y 2.07; C 2.59; W 2.52; H 2.83
F15: S 2.93; I 4.21; Q 3.4; T 2.48; M 3.66; K 3.54; G 2.83; L 3.77; V 3.06; D 3.17; P 2.8; R 3.59; W 4; E 3.59; C 3.34; H 3.14; Y 3.47; N 3.18; A 3.08
Q12: V 2.48; N 4.05; E 4.04; L 4.9; P 2.64; D 3.26; A 4.08; M 3.85; K 5.16; I 2.52; R 4.27; F 4.24; H 4.93; T 2.4; S 3.52; Y 4.3; C 3.84; G 4.74; W 3.61
Y5: H 3.69; L 4.25; G 4.14; F 4.07; D 4.24; V 4.41; E 4.57; K 3.21; T 4.14; I 4.41; S 4.37; N 4.11; M 4.9; R 3.52; Q 4.12; P 3.84; W 4.68; C 4.01; A 4.05
C8: F 3.17; M 3.63; D 4.24; I 3.13; K 3.54; H 3.46; P 3.72; Y 3.43; L 3.56; V 3.81; E 4.37; T 4.23; N 3.65; A 3.88; W 2.96; S 3.68; R 3.12; Q 3.7; G 3.81
Y1: I 4.72; E 5.12; W 4.69; K 4.41; S 4.54; F 3.42; N 4.45; C 3.69; R 3.98; P 4.54; L 4.6; H 4.29; M 4.24; A 4.73; T 4.79; V 4.4; D 4.86; G 4.17; Q 4.55
R14: M 3.77; Q 4.24; H 4; C 4.41; S 4.11; K 4.01; I 4.64; T 4.45; Y 4.52; P 3.9; L 4.28; N 2.68; V 4.67; F 5.24; A 4.16; E 3.88; W 5.12; G 2.81; D 3.08
P3: W 3.5; H 3.81; T 4.65; I 3.99; Y 4.24; N 4.46; C 3.49; R 4.49; G 4.67; L 3.55; S 4.39; Q 3.86; K 4.63; V 4.25; A 4.57; M 4.4; F 4.02; E 4.63; D 4.01
D4: I 4.5; L 3.59; Y 3.59; R 3.53; F 3.72; V 3.84; M 3.8; P 4.08; A 4.26; N 4.22; E 4.21; T 4.08; S 4.49; G 4.28; C 3.48; H 4.5; Q 4.42; K 4.11; W 3.5
E17: D 4.37; L 5.16; F 5.14; H 4.97; A 5.13; G 4.5; C 5.13; K 5.07; I 5.23
I6: V 4.14; W 2.8; A 3.58; M 3.42; C 3.7; L 3.27; E 3.5; T 3.56; Y 3.23; G 3.29; P 3.37; N 3.55; D 3.6; K 3.71; F 3.29; Q 4.03; R 3.63; H 3.71; S 3.44
R13: V 2.23; M 4.03; C 3.17; W 2.13; I 2.92; F 3.18; S 3.62; D 3.16; H 3.51; K 4.32; Q 3.75; E 3.07; A 3.76; N 3.68; P 2.24; Y 2.7; T 2.41; G 4.23; L 2.64

Variants of: B2
Assay: as above
Conditions: c terminus: a fixed tail appended

Protein stability index: each site, then its substitutions
R11: G 2.91
S3: G 1.82
E21: W 1.58
A17: L 1.48
L20: S 3.96
Q15: M 1.67; N 3.22
D18: L 1.86
L19: W 2.24; F 2.23
R9: F 2.56; G 2.96
V16: F 1.92; C 2.98
R4: Q 3.04; S 2.44
L24: M 2.86; G 3.16
E8: K 2.04; M 2.19; D 2.87
